This assay concerns the target SARS-CoV-2 RBD (reagent of the GenScript sVNT kit L00847) (SARS-CoV-2), P0DTC2. To be noted: remark: other sources report otherwise.

B1: Nb21 (VHH)
chain: QVQLVESGGGLVQAGGSLRLSCAVSGLGAHRVGWFRRAPGKEREFVAAIGANGGNTNYLDSVKGRFTISRDNAKNTIYLQMNSLKPQDTAVYYCAARDIETAEYTYWGQGTQVTVSS
For B1, the Inhibition Rate (%) is 14%.

These data come from patent US20240132577A1.
